# Data: paper PMC2894021, “Transcriptional control by two leucine-responsive regulatory proteins in Halobacterium salinarum R1” (BMC Molecular Biology, 2010)
# How the values were obtained:
# [1] = target: LrpA1 (Halobacterium salinarum, UniProt B0R4X4); assay: analytical DNA-affinity chromatography with aspB3 promoter, SDS-PAGE densitometry; format: biochemical; conditions: 5 mM L-aspartate; 3 M KCl, 1 M NaCl, 5 mM MgCl2, 10 mM HEPES, pH 7.1; room temperature, 4 h; effector of DNA binding, indirect read-out
# [2] = target: T1, LrpA1 (Halobacterium salinarum R1) (UniProt B0R4X4); assay: DNA-affinity chromatography (pull-down), SDS-PAGE densitometry; conditions: CFE buffer: 3 M KCl, 1 M NaCl, 5 mM MgCl2, 10 mM HEPES pH 7.1; room temperature, 4 h; 2 nmol LrpA1, 61 pmol biotinylated DNA; elution with 1% SDS
# T1 sequence: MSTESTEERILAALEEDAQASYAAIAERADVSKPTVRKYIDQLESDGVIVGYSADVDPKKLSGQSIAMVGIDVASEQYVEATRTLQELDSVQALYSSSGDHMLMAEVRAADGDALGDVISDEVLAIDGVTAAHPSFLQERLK
# [3] = test system: LrpA1 (Halobacterium salinarum R1); assay: as above; conditions: CFE buffer: 3 M KCl, 1 M NaCl, 5 mM MgCl2, 10 mM HEPES pH 7.1, room temperature, 4 h, 2 nmol LrpA1, 61 pmol biotinylated DNA
# [4] = target: the molecule itself; assay: SEC; Superdex 200 3.2/3 column on a SMART device, 50 ul per min, CFE buffer (3 M KCl; 1 M NaCl; 10 mM HEPES, pH 7.1); LrpA1-His6 after renaturation; monomer to dimer
molecule,measurement,setting,value
N[C@@H](CC(=O)O)C(=O)O [L-aspartate],relative binding efficiency to aspB3-Pincl DNA,[1],resulting in significantly enhanced binding of LrpA1 to the aspB3Pincl sequence
ACGACACCGGGTCGTTTTGATTGTCGGCTACGTGTCGCAGTGTTGGCGGTAGCGCCGCTCCAACGGTGGTTCCGTGGCGTTCCGCTGTCGGTTGACGATTCGGAAGATACCCTTTCACACGAACCCCCTATCCTGACGTGAGCACTGAATCGACAGAAGAGCGAATCCTCGCCGCGCTCGAAGAGGACGCGCAAGCGTCGTATGCGGCCATCGCGGAGCGTGCGGACGTCTCCA (double strand) [lrpA1-Pincl (mutated)],binding signal (% of lrpA1-Pincl),[2],24
ACGACACCGGGTCGTTTTGATTGTCGGCTACGTGTCGCAGTGTTGGCGGTAGCGCCGCTCCAACGGTGGTTCCGTGGCGTTCCGCTGTCGGTTGACGATTCGGAAGATATTTTTTCACACGAACCAAATATCCTGACGTGAGCACTGAATCGACAGAAGAGCGAATCCTCGCCGCGCTCGAAGAGGACGCGCAAGCGTCGTATGCGGCCATCGCGGAGCGTGCGGACGTCTCCA (double strand) [lrpA1-Pincl],binding signal (% band density),[2],100
ATCGCGCTTGAACGTCTGCATACGTCCGCTACGCACCAGGCGCGCAAAACTTCAGGGGGTTCGGGACCCGCGGGTTGTGCCGTGATAGCACACGCGTCCCGCAGGAACGATTATGAGGGATGGCCGCGATCCTGCTGGCATGCCTTCGGAGCGCGCGGCTGCGGTCACGCCGTTCGCCGCGATGGATGTCCTCGAACGCGCCGCCGAC (double strand) [aspB3-Pincl],binding signal (% band density),[2],100
aspB3-Pincl,binding signal (% band density),"[3]; 5 mM L-arginine, text: binding not enhanced by arginine, elution with 1% SDS",100
same,binding signal (% band density),"[3]; 5 mM L-aspartate, elution with 1% SDS",100
same,binding signal (% of aspB3-Pincl + 5 mM Arg),"[3]; no amino acid (arginine experiment), elution with 1% SDS",77
same,binding signal (% of aspB3-Pincl + 5 mM Asp),"[3]; no amino acid (aspartate experiment), elution with 1% SDS",34
flgB1 control DNA,binding signal (% of aspB3-Pincl + 5 mM Arg),"[3]; 5 mM L-arginine, non-specific background, elution with 1% SDS",30
same,binding signal (% of aspB3-Pincl + 5 mM Asp),"[3]; 5 mM L-aspartate, non-specific background, elution with 1% SDS",7
same,binding signal (% of lrpA1-Pincl),"[3]; no amino acid, non-specific background, elution with 1% SDS",37
lrpA1-Pincl,binding signal (% band density),"[3]; no amino acid, elution with 1% …",100
"H. salinarum LrpA1 (OE2621R), His6-tagged (natural protein, Halobacterium salinarum R1, UniProt B0R4X4 1-142, looked up, Leucine-responsive regulatory protein homologue LrpA1 of Halobacterium salinarum R1, locus OE2621R; theoretical size of the monomer 15.2 kDa; amplified by PCR and cloned NdeI/XhoI into pET26b; the cloning primers are in additional file 10; also called LrpA1-His6; transcription regulator LrpA1; source: E. coli BL21(DE3), pET26b; purified on Ni-NTA in 8 M urea, renatured by dialysis against high …) MSTESTEERILAALEEDAQASYAAIAERADVSKPTVRKYIDQLESDGVIVGYSADVDPKKLSGQSIAMVGIDVASEQYVEATRTLQELDSVQALYSSSGDHMLMAEVRAADGDALGDVISDEVLAIDGVTAAHPSFLQERLK",stoichiometry N,[4],2
